This is an account of results in patent US20230091471A1 (APELLIS PHARMACEUTICALS, published 2023).

For experiment [1], the target named is T1, human complement component C3 (human, UniProt P01024 23-1663). The experiment can be described thus: cell-based or functional assay.
In experiment [2] the target is T1, human complement component C3. The experiment can be described thus: cell-based or functional assay. The source holds these as a separate data set.

B1: CA28-AEEAc-Lys-(PEG40k) (peptide)
peptide: ICVWQDWGAHRCTK
modifications: not fully specified; N-terminal acetyl; 1-methyl-Trp at 4; disulfide Cys2-Cys12; AEEAc after Thr13; Lys15 side chain coupled to linear 40 kD mPEG (NOF SUNBRIGHT ME-400GS); C-terminal amide
Regarding B1, in experiment [1], the “IC50 (read off the curve); classical pathway C3b deposition ELISA, human plasma” value (from here on “IC50 (read off the curve)”) is approximately 0.6 µM.

B2: CA28-AEEAc-Lys(mPEG40K-succinyl) (peptide)
peptide: ICVWQDWGAHRCTK
modifications: not fully specified; N-terminal acetyl; 1-methyl-Trp at 4; disulfide Cys2-Cys12; AEEAc after Thr13; Lys15 side chain coupled to linear 40 kD mPEG (NOF SUNBRIGHT ME-400CS); C-terminal amide
With B2, in experiment [1], the “IC50 (read off the curve)” value was approximately 0.6 µM.

B3: CA28-AEEAc-Lys(mPEG40K-hexanoyl) (peptide)
peptide: ICVWQDWGAHRCTK
modifications: not fully specified; N-terminal acetyl; 1-methyl-Trp at 4; disulfide Cys2-Cys12; AEEAc after Thr13; Lys15 side chain coupled to linear 40 kD mPEG (NOF SUNBRIGHT ME-400HS); C-terminal amide
Turning to B3, the “IC50 (read off the curve)” value in experiment [1] is approximately 0.6 µM.

B4: CA28-AEEAc-Lys(mPEG40K-carbonyl) (peptide)
peptide: ICVWQDWGAHRCTK
modifications: not fully specified; N-terminal acetyl; 1-methyl-Trp at 4; disulfide Cys2-Cys12; AEEAc after Thr13; Lys15 side chain coupled to linear 40 kD mPEG (NOF SUNBRIGHT ME-400TS); C-terminal amide
For B4, the “IC50 (read off the curve)” value in experiment [1] is approximately 0.6 µM.

B5: CA28-2GS-BF (peptide)
peptide: ICVWQDWGAHRCTK
modifications: not fully specified; N-terminal acetyl; 1-methyl-Trp at 4; disulfide Cys2-Cys12; AEEAc after Thr13; Lys side chain coupled to one end of a bifunctional linear 40 kD PEG of the GS type (NHS-OCO(CH2)3COO-PEG-CO(CH2)3COO-NHS); C-terminal …
For the molecule B5, in experiment [2], the “Q1 (Type III cells with high C3d deposition) % Parent, modified Ham's assay, 50 ug/ml” value was 0.01%; the “Q2 (Type I and II cells with high C3d deposition) % Parent, modified Ham's assay, 50 ug/ml” value amounted to 0.01%; the “Q3 (Type III cells without significant C3d deposition) % Parent, modified Ham's assay, 50 ug/ml” value stood at 61.5%; the “Q4 (Type I and II cells without significant C3d deposition) % Parent, modified Ham's assay, 50 ug/ml” value is 38.5%.
